{
  "source": "patent US20080085863A1",
  "about": "(WISCONSIN ALUMNI RESEARCH FOUNDATION, published 2008)",
  "key": {"[1]": {"molecular_target": "T1, Flag-tagged recombinant bone morphogenetic protein-1 (BMP-1) (UniProt P13497-2 121-730, limits assumed)", "T1 construct": "Prepared as in Scott et al. 1999 (cited); In the Ki and complex-formation experiments it was metabolically labelled with 35S and purified on an anti-FLAG M2 column; also called 35S-radiolabeled BMP-1; recombinant BMP-1; not shown: Flag tag", "T1 sequence (looked up)": "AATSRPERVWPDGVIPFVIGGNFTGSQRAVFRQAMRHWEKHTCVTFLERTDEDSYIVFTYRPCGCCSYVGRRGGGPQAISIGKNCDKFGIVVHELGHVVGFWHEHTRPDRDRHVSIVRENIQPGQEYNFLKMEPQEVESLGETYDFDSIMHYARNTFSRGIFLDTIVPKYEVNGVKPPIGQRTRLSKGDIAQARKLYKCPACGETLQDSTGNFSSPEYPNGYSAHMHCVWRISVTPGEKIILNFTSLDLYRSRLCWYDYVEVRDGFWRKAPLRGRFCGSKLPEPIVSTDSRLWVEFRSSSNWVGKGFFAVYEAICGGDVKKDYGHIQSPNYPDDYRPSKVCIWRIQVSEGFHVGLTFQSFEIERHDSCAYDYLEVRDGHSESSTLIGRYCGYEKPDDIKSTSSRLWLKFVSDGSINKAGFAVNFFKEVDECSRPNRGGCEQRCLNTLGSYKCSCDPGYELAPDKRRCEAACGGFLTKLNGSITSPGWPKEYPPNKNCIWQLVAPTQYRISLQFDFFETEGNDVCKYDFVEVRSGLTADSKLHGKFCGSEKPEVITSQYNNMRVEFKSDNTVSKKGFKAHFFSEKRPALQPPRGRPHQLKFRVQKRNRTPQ", "assay": "time course of covalent complex formation of 40 nM 35S-BMP-1 with increasing b-α2M, SDS-PAGE densitometry (method of Enghild et al.)", "procedure": "(§1) 40 nM ³⁵S-labeled BMP-1 was incubated with 20, 40, 80, 160, and 240 nM plasma α₂M, or recombinant wild type α₂M or with 5, 10, 20, 40, and 80 nM b-α₂M at 37° C. in 50 mM Tris-HCl, pH 7.5, 100 mM NaCl and 10 mM CaCl₂. Reactions were stopped at 10, 30, 60, 90 and 120 minutes (plasma α₂M and recombinant wild type α₂M), or at 2, 5, 10, 20 and 30 minutes (b-α₂M) by adding. SDS-PAGE sample buffer and boiling 5 minutes at 95° C. Protein samples were separated on 7.5% acrylamide SDS-PAGE gels, which were then treated with EN³HANCE (DuPont) and exposed to film. Percentages of BMP-1 incorporated into high molecular weight complexes were determined by densitometry and kinetic parameters were determined essentially via the method of Enghild J, et al, “Interaction of human rheumatoid synovial collagenase (matrix metalloproteinase 1) and stromelysin (matrix metalloproteinase 3) with human alpha 2-macroglobulin and chicken ovostatin. Binding kinetics and identification of matrix metalloproteinase cleavage sites,” J. Biol. Chem. 264:8779-8785 (1989).\n(§2) To obtain a quantitative comparison of the rates of interaction of BMP-1 with the various wild type and mutant forms of α₂M, we employed the methodology of Enghild et al., supra, which involves quantification of covalent proteinase-α₂M complex formation, subsequent to incubation of radiolabeled proteinase with α₂M."}, "[2]": {"molecular_target": "T1, Flag-tagged recombinant bone …", "assay": "ratio of second order rate constants, 35S-BMP-1 complex formation", "procedure": "as §1, §2"}, "[3]": {"molecular_target": "T1, Flag-tagged recombinant bone …", "assay": "cell-based or functional assay"}},
  "data": [
    {"binder": "recombinant mutant α2-macroglobulin with the native bait region replaced by sequences flanking the human probiglycan BMP-1 cleavage site (b-α2M) (other, One subunit is given; cross-linking showed that the protein forms tetramers. The internal thioester and glycosylation are not carried by the letters., also called recombinant b-α2M; modified α2M) DYKDDDDKSVSGKPQYMVLVPSLLHTETTEKGCVLLSYLNETVTVSASLESVRGNRSLFTDLEAENDVLHCVAFAVPKSSSNEEVMFLTVQVKGPTQEFKKRTTVMVKNEDSLVFVQTDKSIYKPGQTVKFRVVSMDENFHPLNELIPLVYIQDPKGNRIAQWQSFQLEGGLKQFSFPLSSEPFQGSYKVVVQKKSGGRTEHPFTVEEFVLPKFEVQVTVPKIITILEEEMNVSVCGLYTYGKPVPGHVTVSICRKYSDASDCHGEDSQAFCEKFSGQLNSHGCFYQQVKTKVFQLKRKEYEMKLHTEAQIQEEGTVVELTGRQSSEITRTITKLSFVKVDSHFRQGIPFFGQVRLVDGKGVPIPNKVIFIRGNEANYYSNATTDEHGLVQFSINTTNVMGTSLTVRVNYKDRSPCYGYQWVSEEHEEAHHTAYLVFSPSKSFVHLEPMSHELPCGHTQTVQAHYILNGGTLLGLKKLSFYYLIMAKGGIVRTGTHGLLVKQEDMKGHFSISIPVKSDIAPVARLLIYAVLPTGDVIGDSAKYDVENCLANKVDLSFSPSQSLPASHAHLRVTAAPQSVCALRAVDQSVLLMKPDAELSASSVYNLLPEKDLTGFPGPLNDQDDEDCINRHNVYINGITYTPVSSTNEKDMYSFLEDMGLKAFTNSKIRKPKMCPQFWDFTLDDGPFMMNDEEASGADTSGVLDPDSVTPTYSAMVRKYFPETWIWDLVVVNSAGVAEVGVTVPDTITEWKAGAFCLSEDAGLGISSTASLRAFQPFFVELTMPYSVIRGEAFTLKATVLNYLPKCIRVSVQLEASPAFLAVPVEKEQAPHCICANGRQTVSWAVTPKSLGNVNFTVSAEALESQELCGTEVPSVPEHGRKDTVIKPLLVEPEGLEKETTFNSLLCPSGGEVSEELSLKLPPNVVEESARASVSVLGDILGSAMQNTQNLLQMPYGCGEQNMVLFAPNIYVLDYLNETQQLTPEIKSKAIGYLNTGYQRQLNYKHYDGSYSTFGERYGRNQGNTWLTAFVLKTFAQARAYIFIDEAHITQALIWLSQRQKDNGCFRSSGSLLNNAIKGGVEDEVTLSAYITIALLEIPLTVTHPVVRNALFCLESAWKTAQEGDHGSHVYTKALLAYAFALAGNQDKRKEVLKSLNEEAVKKDNSVHWERPQKPKAPVGHFYEPQAPSAEVEMTSYVLLAYLTAQPAPTSEDLTSATNIVKWITKQQNAQGGFSSTQDTVVALHALSKYGAATFTRTGKAAQVTIQSSGTFSSKFQVDNNNRLLLQQVSLPELPGEYSMKVTGEGCVYLQTSLKYNILPEKEEFPFALGVQTLPQTCDEPKAHTSFQISLSVSYTGSRSASNMAIVDVKMVSGFIPLKPTVKMLERSNHVSRTEVSSNHVLIYLDKVSNQTLSLFFTVLQDVPVRDLKPAIVKVYDYYETDEFAIAEYNAPCSKDLGNA", "values": [
      {"measurement": "Ki", "setting": "[1]", "result": 36.4, "unit": "nM"},
      {"measurement": "Relative effectiveness (against recombinant α2M = 1)", "setting": "[2]", "result": 23.7, "unit": "fold"},
      {"measurement": "fold more effective in interacting with BMP-1 than wild type α2M from plasma (second order rate constants)", "setting": "[2]", "result": 15.7, "unit": "fold"},
      {"measurement": "pCP inhibitory activity, IC50", "setting": "[3]", "result": 1.88, "unit": "nM"},
      {"measurement": "α2M inhibition of BMP-1 (fold enhancement over the native bait region)", "setting": "[3]", "result": "~25", "unit": "fold"}
    ]}
  ]
}
